The text below walks through data of US20260125477A1 (BEIJING MABWORKS BIOTECH, published 2026).

The target of assay [1] is T1, recombinant human B7-H3 (4Ig) protein, with His tag (human, UniProt Q5ZPR3 29-461, limits assumed).
T1 construct: Bought protein; also called human B7-H3 (4Ig)/B7-H3b protein
T1 sequence (looked up): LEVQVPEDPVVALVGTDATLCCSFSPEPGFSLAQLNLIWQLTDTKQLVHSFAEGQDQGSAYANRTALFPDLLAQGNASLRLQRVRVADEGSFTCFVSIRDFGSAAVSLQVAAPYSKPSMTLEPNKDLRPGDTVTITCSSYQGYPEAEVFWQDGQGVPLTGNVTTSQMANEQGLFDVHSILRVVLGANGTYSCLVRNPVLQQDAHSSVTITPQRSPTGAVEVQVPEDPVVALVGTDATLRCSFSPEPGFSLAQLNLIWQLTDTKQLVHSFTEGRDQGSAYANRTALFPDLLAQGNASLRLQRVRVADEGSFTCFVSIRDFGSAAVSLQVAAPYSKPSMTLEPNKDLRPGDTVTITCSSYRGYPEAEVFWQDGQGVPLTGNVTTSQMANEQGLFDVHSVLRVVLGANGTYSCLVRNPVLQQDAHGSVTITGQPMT
Kind of assay: SPR (Biacore T200), antibody captured on Protein A chip, His-tagged antigen injected. The protocol: (§1) The fully human anti-human B7-H3 antibodies were tested for their binding affinity to human B7-H3 (4Ig), human B7-H3 (2Ig), monkey B7-H3 (monkey B7-H3/CD276 protein, with His tag, Cat #: B73-C52Ha, ACROBiosystems) and mouse B7-H3 protein (mouse B7-H3/CD276 protein, with His tag, Cat #: B73-M52H4, ACROBiosystems) by surface plasmon resonance (SPR) using Biacore T200 biosensor (Biacore, US) provided with a pre-fixed Protein A sensor chip. Briefly, the anti-human B7-H3 antibodies (1 μg/mL) were injected to the Biacore T200 biosensor at 10 μL/min for 20 sec, to achieve the desired protein density (100±30 RU).
(§2) The data as generated was analyzed using Biacore Insight V2.0.1 5.12933 with the one-to-one Langmuir binding model. The association rate (kₒₙ) and dissociation rate (koff) were obtained at the same time. The affinity was calculated as the quotient of the two kinetic rate constants (KD=koff/kₒₙ).
(In SPR one partner is held on a chip, and binding of the other changes the refractive index at the surface.)

The target of assay [2] is T2, recombinant human B7-H3 (2Ig) protein, with His tag (human, UniProt Q5ZPR3-2 29-245, limits assumed).
T2 construct: Bought protein; also called human B7-H3/CD276 protein
T2 sequence (looked up): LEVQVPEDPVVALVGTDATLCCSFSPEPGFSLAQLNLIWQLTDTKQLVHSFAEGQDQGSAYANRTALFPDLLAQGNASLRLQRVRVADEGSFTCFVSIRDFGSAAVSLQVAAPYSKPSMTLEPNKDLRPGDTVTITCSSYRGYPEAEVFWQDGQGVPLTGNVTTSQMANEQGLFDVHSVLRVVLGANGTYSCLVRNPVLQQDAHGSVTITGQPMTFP
The description is as above. The protocol:
as §1, §2

For assay [3], the target named is T3, monkey B7-H3/CD276 protein, with His tag (monkey).
T3 construct: Bought protein
Described as above. The protocol: as §1, §2

Assay [4] addresses T1, recombinant human B7-H3 (4Ig) protein, …. Briefly: SPR (Biacore T200), antibody captured on Protein A chip, response at 200 nM antigen. Here is the method:
(§3) The anti-human B7-H3 antibodies were tested for their binding capability to B7 family proteins by SPR using Biacore T200 biosensor (Biacore, US) provided with a pre-fixed Protein A sensor chip.
(§4) The dissociation was monitored for 600 sec. The data was analyzed using Biacore 8k evaluation software version 3.0, to obtain the binding responses, and the protein concentration-binding response curves were plotted, to determine the cross-reaction of the anti-human B7-H3 antibodies to the B7 family proteins.

The target in assay [5] is T4, recombinant human CD80 protein (human B7-1/CD80 protein, with His tag) (human, UniProt P33681 35-242).
T4 construct: Bought protein
T4 sequence (looked up): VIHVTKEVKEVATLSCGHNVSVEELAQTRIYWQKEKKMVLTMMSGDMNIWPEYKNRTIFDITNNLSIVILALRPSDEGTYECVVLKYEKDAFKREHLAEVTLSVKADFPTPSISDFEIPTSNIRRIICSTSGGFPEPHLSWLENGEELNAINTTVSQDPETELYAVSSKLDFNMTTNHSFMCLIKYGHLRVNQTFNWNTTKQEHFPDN
The description is as above. The protocol:
as §3, §4

In assay [6] the target is T5, human PD-L1/B7-H1 protein, with His tag (human, UniProt Q9NZQ7 19-238).
T5 construct: Bought protein
The description is as above. Here is the method: as §3, §4

The target in assay [7] is T6, human PD-L2/B7-DC protein, with His tag (human, UniProt Q9BQ51 20-219, limits assumed).
T6 construct: Bought protein
T6 sequence (looked up): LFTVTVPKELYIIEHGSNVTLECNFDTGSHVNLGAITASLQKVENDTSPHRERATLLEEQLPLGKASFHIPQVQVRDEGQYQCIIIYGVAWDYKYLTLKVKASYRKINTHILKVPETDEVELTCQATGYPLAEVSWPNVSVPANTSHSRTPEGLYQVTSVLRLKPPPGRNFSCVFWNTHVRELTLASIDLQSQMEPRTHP
Described as above. The protocol: as §3, §4

Assay [8] concerns the target T7, human B7-H5/Gi24/VISTA protein, with His tag (MALS verified) (human, UniProt Q9H7M9 33-194).
T7 construct: Bought protein
T7 sequence (looked up): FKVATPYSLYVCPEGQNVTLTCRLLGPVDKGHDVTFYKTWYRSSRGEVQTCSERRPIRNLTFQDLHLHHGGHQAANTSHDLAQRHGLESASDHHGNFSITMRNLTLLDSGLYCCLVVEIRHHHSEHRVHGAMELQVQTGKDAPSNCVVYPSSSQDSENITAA
The description is as above. The protocol: as §3, §4

T5 sequence (Q9NZQ7 19-238 limits assumed): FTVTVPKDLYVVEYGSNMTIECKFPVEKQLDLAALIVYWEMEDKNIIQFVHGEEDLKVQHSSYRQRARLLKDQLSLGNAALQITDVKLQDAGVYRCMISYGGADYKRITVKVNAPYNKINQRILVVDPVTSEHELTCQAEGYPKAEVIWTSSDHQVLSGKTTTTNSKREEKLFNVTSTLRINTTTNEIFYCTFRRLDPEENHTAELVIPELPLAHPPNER

B1: 10D7 (antibody, human IgG1, kappa, V domains shown)
VH: QVQLVQSGPGLVKPSETLSLTCTVSGGSISRSSYYWGWIRQPPGKGLEWIGNIFYAGSTYYNPSLKSRVTISVDTSKNQFSLKLSSVTAADTAVYYCARRITGTTGWFDPWGQGTLVTVSS
VL: DIQLTQSPSSLSASVGDRVTITCRASQGIRNDLGWYQQKPGKAPKLLIYAASTLQSGVPSRFSGSGSGTDFTLTISSLQPEDFATYYCLQDYNYPRTFGQGTKVEIKR
notes: also called 10D7-WT; Ab10D7
Turning to B1, the Kd – broadly, a measure of binding affinity in units of concentration – in assay [1] was 1.11 nM; in assay [2], 386 nM; in assay [3] it was 49.5 nM. Further, the off-rate constant (koff) (commonly the first-order rate constant of dissociation) in assay [1] was 0.000291 s⁻¹; in assay [2] it was 0.0588 s⁻¹; in assay [3], 0.0167 s⁻¹. In addition, the values for the kon in assay [1], in assay [2] and in assay [3] were 263000 M⁻¹ s⁻¹, 152000 M⁻¹ s⁻¹ and 337000 M⁻¹ s⁻¹, respectively. Further, the “Response (RU)” value in assay [4] was 41.9 RU; in assay [5], 0.2 RU; in assay [6], 0.3 RU; in assay [7] it was -0.2 RU; in assay [8], 0.6 RU.

B2: 6B5 (antibody, human IgG1, kappa, V domains shown)
VH: QVQLVESGPGLVKPSQTLSLTCTVSDGSISSGGYYWSWIRQHPGKGLEWIGYIYYSGGTYYSPSLKSRVTISVDTSKNQFSLKLTSVTAADTAVYYCARRAGYSSSFDSWGQGILVTVSS
VL: EIVLTQSPLSLPVTPGEPASISCRSSQSLLYSNGYTYLDWYLQKPGQSPQFLIYLGFNRASGVPDRFSGSGSGTDFTLKISRVEAEDVGVYYCMQGLQTPYTFGQGTKLEIKR
notes: also called 6B5-WT; Ab6B5
Take B2: the equilibrium dissociation constant (Kd) in assay [1] turned out to be 1.26 nM; in assay [2], 51.5 nM; in assay [3] it was 1.14 nM. Moreover, the koff in assay [1] was found to be 0.00031 s⁻¹; in assay [2] it was 0.00653 s⁻¹; in assay [3], 0.000295 s⁻¹. The on-rate constant (kon) (in general, a measure of how fast the partners come together) in assay [1] stood at 247000 M⁻¹ s⁻¹; in assay [2] it was 127000 M⁻¹ s⁻¹; in assay [3], 258000 M⁻¹ s⁻¹. In addition, the “Response (RU)” value in assay [4] was 34.8 RU; in assay [5], 0.6 RU; in assay [6], 1 RU; in assay [7], -0.2 RU; in assay [8], 0.9 RU.

B3: Enoblituzumab (antibody, human IgG1, kappa, V domains shown)
VH: EVQLVESGGGLVQPGGSLRLSCAASGFTFSSFGMHWVRQAPGKGLEWVAYISSDSSAIYYADTVKGRFTISRDNAKNSLYLQMNSLRDEDTAVYYCGRGRENIYYGSRLDYWGQGTTVTVSS
VL: DIQLTQSPSFLSASVGDRVTITCKASQNVDTNVAWYQQKPGKAPKALIYSASYRYSGVPSRFSGSGSGTDFTLTISSLQPEDFATYYCQQYNNYPFTFGQGTKLEIKR
notes: Humanized anti-B7-H3 antibody of MacroGenics with optimised Fc, used as the positive control; also called AbEno; enoblituzumab-IgG1-Mut
As to B3, the dissociation constant (Kd) in assay [1] came to 1.11 nM; in assay [2], 275 nM; in assay [3], 0.966 nM. The koff was determined as 0.000239 s⁻¹ in assay [1], 0.0203 s⁻¹ in assay [2] and 0.000223 s⁻¹ in assay [3]. Moreover, the values for the on-rate (kon) in assay [1], in assay [2] and in assay [3] were 216000 M⁻¹ s⁻¹, 73700 M⁻¹ s⁻¹ and 231000 M⁻¹ s⁻¹, respectively. The “Response (RU)” value is 25.7 RU in assay [4]; -1.8 RU in assay [5]; -2.2 RU in assay [6]; -1.2 RU in assay [7]; -1.8 RU in assay [8].

B4: 10F5 (antibody, human IgG1, kappa, V domains shown)
VH: QVQLVQSGAEVKKPGSSVKVSCKASGGTFSSQAISWVRQAPGQGLEWMGRIIPMLGIGDYAQSFQGRVTITADKSTSTAYLEVSSLGSEDTAVYYCAREGIAALGTNYYYGMDVWGQGTAVTVSS
VL: EIVMTQSPSSVSASVGDRVTITCRASQGISRWLAWYQQKPGKAPKLLIYVASSLQSGVPSRFSGSGSGTDFTLTISSLQPEDFATYYCQQANSFPFTFGPGTKVDIRR
notes: also called Ab10F5
Regarding B4, the results for the dissociation constant Kd in assay [1] and in assay [2] were 1.01 nM and 10.4 nM, respectively. Besides, the off-rate constant (koff) stood at 0.00011 s⁻¹ in assay [1] and 0.000422 s⁻¹ in assay [2]. For the same molecule, the association rate constant (kon) in assay [1] was 109000 M⁻¹ s⁻¹; in assay [2], 40500 M⁻¹ s⁻¹. The “Response (RU)” value in assay [4] amounted to 32.5 RU; in assay [5], 0.7 RU; in assay [6], 0.5 RU; in assay [7] it was 0 RU; in assay [8] it was 0.6 RU.
